Experimental data from the nanobody polyreactivity screen of Harvey et al. (2022).

Test: yeast display, Sf9 membrane polyspecificity reagent, FACS + sequencing; frameworks hold sequencing errors
Procedure, shortened: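 Synthetic nanobody libraries on Saccharomyces cerevisiae BJ5465 were galactose-induced for 36–48 hours, stained 1 hour at 4 °C with 10% biotinylated, detergent-solubilized Sf9 membrane reagent and enriched on streptavidin microbeads. FACS then separated cells into low and high (top ~1%) gates by anti-HA (expression) and streptavidin (reagent binding) fluorescence. Genes were colony-PCR amplified, MiSeq 2 × 250 sequenced and CDR-length filtered. A clone's polyreactivity label is that of its gate of origin.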

| Sequence | polyreactivity (PSR sort gate) |
| --- | --- |
| QVQLVESGGGLVQAGGSLRLICAASGFILRRYAMGWFRPAPGKEREFVAAIRYRGGNTYYADSVKGRFTLSRDTAKNTVYFQMNSLNPEDTAVYYCAADWSEKYEYWRQGTQVTVSS | high polyreactivity |
| QVQLVESGGGLVQAGGSLRLICAASGFIYSYYAMGWYRQAPGKERELVAVISGSGGGTYYAVSVKGRFRISRDNAKNTVYLQMNSLKPEDTAVYDFAARNSGGTTKYYYWGQGTQVTVSS | high polyreactivity |
| QVQLVESGGGLVQAGGSLRLICAASGFTFRSYAMGWYRQAPGKERELVAAITSTGGRTYYADSVKGRFTISRDNAKNTVYLQMNSLKPEDTAVYYCAAGRKHYAPVHFGYWGQGTQVTVSS | high polyreactivity |
| QVQLVESGGGLVQAGGSLRLICAASGFTFYNYAKGWYRQAPGKERQLVAAISTSGGSTYYADSVKGRFTISRDNAKNTVYLQMNSLKPEDTAVYYCAAQATAYSYAYYYWGQGTQVTVSS | low polyreactivity |
| QVQLVESGGGLVQAGGSLRLICAASGFTINYYVMGWYRQAPGKERELVAAISGRGGSTYYADSVTGRFTISRDNAKNTVYLQMNSLNPEETAVYYCNKVFSIPWQGVRFDFWGQGTQVTVSS | high polyreactivity |
| QVQLVESGGGLVQAGGSLRLICAASGGIFYFNAMGWYRQAPGKERELVASITWSGGNTYYADSVKGRFTISRDNAKNTVYLQMNSLKPEDTAVYYCAADTQEYRPTYDYWGQGTQVTVSS | low polyreactivity |
| QVQLVESGGGLVQAGGSLRLICAASGIFASYAMGWYRQAPGKERELVAAIRSSGGRTYYADSVKGRFTISRDNAKNTVYLQMNSLKPEDTAVYYCAVASGQSFYWGQGTQVTVSS | high polyreactivity |
| QVQLVESGGGLVQAGGSLRLICAASGIIFNHNAMGWYRQAPGKERELVAAITLSGGTTYYADSVKGRFTISRDNAKNTVYVQMNSLKPEDTALYYCATRSYILGWRYDYWGQGTQVTVSS | high polyreactivity |
| QVQLVESGGGLVQAGGSLRLICAASGIIFRYYAMGWYRQAPGKERELVASISRGGSTYYADSVKGRFTISRDNAKNTVYLQMNSLKPEDTAVYYCAADVYPVYLYGYEYCGQGTQVTVSS | high polyreactivity |
| QVQLVESGGGLVQAGGSLRLICAASGITFAVYAMGWYSQAPGKERELVAASSVSGGSTYYADSVKGRFTISRDNAKNTVYLQMNSLKPEATAVYYGAADRYGHFGDWGQGTQVTVSS | high polyreactivity |
| QVQLVESGGGLVQAGGSLRLICAASGITFLQYARGWYRQATGKERELVAVISRGSRTYYADSVKGRFTISRDNAKNTFYLQMNSLKPEDTAVYYCAAVRGLAVGYDYWGQGTQVTVSS | high polyreactivity |
| QVQLVESGGGLVQAGGSLRLICAASGITFLRYAMGWYRQAPGKERELVAAISTRGGSTYYADSVKGRFTISRDNAKNTVYLQMNSLKPEDTAVYYCAAAGVTGSYGGKGRWYDFWGQGSQVTVSS | high polyreactivity |
| QVQLVESGGGLVQAGGSLRLICAASGITLWTYAMGWYRQAPGKERELVAAIRRGGSTYYADSVKGRFTISRDNAKYTVFLQMNSLKPEDTAVYYCNTVSFYPYYYWGQGTQVTVSS | high polyreactivity |
| QVQLVESGGGLVQAGGSLRLICAASGITYDQNAMGWYRQAPGKDRDLVAAITRGSSTNYADSVKGRVTISRDNAKNTVYLKMNSVKPEDTAVYYCAAAVLGSSKSEVDPDRPEYYYWGQGTQVTVSS | low polyreactivity |
| QVQLVESGGGLVQAGGSLRLICAASGLIFPSYAMGWYRQAPGKERELVAGINSGGSTNYADSVKGRFTISRDNAKNTVYLQMNSLKPEDTAVYYCAKDNNYYWYVSPRDYWGQGTQVTVSS | low polyreactivity |
| QVQLVESGGGLVQAGGSLRLICAASGLTFHPYAMGWYRPAPGKERELVAAISSRGTSTYYADSVKGRFTISRDNAQNTVYLQMNCLKPEDTAVYYFAARHGPRAEAMYYWGQGTQVTVSS | high polyreactivity |
| QVQLVESGGGLVQAGGSLRLICAASGLTFHRYAMGWYRQAPGKERELVAAINYSGGRTYYADSVKGRFTISRDNAKNTVYLQMNSLKPEDTAVYYCAAPRASGYYWGQGTQVTVSS | high polyreactivity |
| QVQLVESGGGLVQAGGSLRLICAASGLTFKRYAMGWYRQAPGKEREFVAAISAGGASTHYADSVKGRFTISRDNAKNTVYLQMNSLKPEDTAVYYCATDYRSFRPSFGYWGQGTQVTVSS | low polyreactivity |
| QVQLVESGGGLVQAGGSLRLICAASGLTFKSNTMGWYRQAPGKERELVAAISRSGGRTYYADSVKGRFTLSRDNAKNTVYLQMNSLKPEDTAVYYCAALYHTYLTWREDYWGQGTQVTVSS | high polyreactivity |
| QVQLVESGGGLVQAGGSLRLICAASGNIFTQYGMGWYRQAPGKERELVAAISRRGGSTYYADSVKGRFTISRDNAKNTVYLQMNSLKPEDTAVYYCARRTNRPPWGFEYWGQGTQVTVSS | high polyreactivity |
| QVQLVESGGGLVQAGGSLRLICAASGNTFSAYGMGYYRQAAGKERELVAGITNGGSTNYADSVKGRFTISRDNAMNTVYLQMNSLKPEDTAVYYCATVQYVEPPTPVDYWGQGTQVTVSS | low polyreactivity |
| QVQLVESGGGLVQAGGSLRLICAASGNTFYYYAMGWYRQAPGKERELVASITSTARTYYADSVKGRFTISRDNAKNTGYLQMNSLKPEDTAVYYCNAKEHYATRSDSCGQGTQVTVSS | high polyreactivity |
